B1: OR4K15 (parent)
chain: GUUAACGGUCAUAGGCCAUGGAAACUAGGAGCACCAUUUCGCUGCCAGUGAAGAAAUGAACAAAGAAAAUCUGGGCCAGGCAGGCAUCAAAAGAAAUAGUCUUGCGCUCAACCAGAAAGUCUGUAAUCAUUUUAAGGGUA

The variants in the data set derive from B1. The data set is described as follows: self-cleavage, relative activity (ratio to wild type); higher = more cleavage; in vitro, sequencing; the parent is a self-cleaving ribozyme.
For the variant G53U U87C, the self-cleavage was determined as 0.98.

Take A54G U97C: the self-cleavage is 1.37.

Consider A52U U97C, for which the self-cleavage came to 0.96.

Consider G53U A60U, for which the self-cleavage is 1.71.

Consider A56G A126U, for which the self-cleavage worked out at 0.95.

For A54U A95G, the self-cleavage stood at 2.47.

As to A54G G75A, the self-cleavage came to 0.14.

A55G A140U: the self-cleavage is 0.81.

Turning to A52G U131C, the self-cleavage turned out to be 1.51.

As for A52G U70A, the self-cleavage is 0.45.

Regarding A52G U70C, the self-cleavage was 0.79.

On to A52U G137A, for which the self-cleavage came to 1.58.

Consider A55U A110G, for which the self-cleavage is 0.23.

Consider A52G U72A, for which the self-cleavage came out at 0.4.

For the variant A55G U102C, the self-cleavage stood at 1.75.

For A52G A135U, the self-cleavage came out at 1.37.

Regarding A56G A82U, the self-cleavage is 0.23.

With A56G A82G, the self-cleavage turned out to be 0.56.

As for A56G A82C, the self-cleavage is 0.15.

A56G A89G: the self-cleavage is 1.5.

For the variant A54G C88U, the self-cleavage came out at 1.51.

G53A G75A: the self-cleavage came to 0.09.

With A55G U100C, the self-cleavage was 1.93.

For A55G U100A, the self-cleavage was found to be 0.48.

In the case of A54G A95U, the self-cleavage came out at 1.53.

For the variant A55G G84A, the self-cleavage turned out to be 2.46.

Turning to A56G C109A, the self-cleavage came to 0.34.

Regarding A55G G65A, the self-cleavage was determined as 1.07.

For the variant A55G A94G, the self-cleavage turned out to be 1.39.

For A56C A78U, the self-cleavage amounted to 0.35.

Take A55G G137A: the self-cleavage was found to be 1.82.

In the case of A54G U133C, the self-cleavage was found to be 1.88.

As to A54U U133A, the self-cleavage was determined as 1.49.

As for A54U U133C, the self-cleavage came out at 2.23.

On to A52G U120C, for which the self-cleavage came out at 1.16.

As to G53A A78G, the self-cleavage was 0.22.

On to G53A A78U, for which the self-cleavage came out at 0.52.

For A55C U72C, the self-cleavage worked out at 0.24.

Take G53A A86G: the self-cleavage worked out at 1.83.

A56G A118C: the self-cleavage came out at 0.64.

In the case of A55G A67U, the self-cleavage was determined as 1.53.

Regarding A55G A67G, the self-cleavage was 1.21.

Take A56G C105U: the self-cleavage is 0.12.

A55C U124C: the self-cleavage turned out to be 0.95.

Turning to A52U U127C, the self-cleavage is 0.98.

For the variant A54C U57C, the self-cleavage stood at 1.29.

Take A55U A116G: the self-cleavage was 0.88.

Take A52U C113U: the self-cleavage is 0.06.

A55G G138A: the self-cleavage was determined as 1.54.

With A52U A78G, the self-cleavage came to 0.24.

For A52U A98U, the self-cleavage turned out to be 1.72.

Take A54U A59G: the self-cleavage is 1.75.

On to A52G G75A, for which the self-cleavage turned out to be 0.23.

Regarding A56G A64G, the self-cleavage is 1.44.

On to A56G A90C, for which the self-cleavage was found to be 0.21.

As for A56G A90U, the self-cleavage worked out at 1.83.

A52U A59U: the self-cleavage came out at 1.99.

Turning to A55U U103C, the self-cleavage was 0.91.

A54G A117G: the self-cleavage came to 1.68.

With A54U A118G, the self-cleavage came to 0.95.

As to A52U A55U, the self-cleavage was 1.62.

For the variant A52U A55G, the self-cleavage was determined as 1.07.

In the case of G53A G119U, the self-cleavage was found to be 2.11.

For the variant A55G C88U, the self-cleavage came to 1.02.

With A55G U120A, the self-cleavage is 1.67.

Take A56G A117U: the self-cleavage was 1.27.

Regarding G53U A126G, the self-cleavage worked out at 1.4.

For the variant G53A G136U, the self-cleavage was 2.03.

In the case of A54G U87A, the self-cleavage was 1.79.

Take A54G U87C: the self-cleavage was found to be 0.9.

On to A52G C76G, for which the self-cleavage stood at 0.03.

A52G C76U: the self-cleavage is 0.13.

For A55U G137A, the self-cleavage is 1.23.

Turning to A54G U102C, the self-cleavage came to 1.41.

Regarding A54G U102A, the self-cleavage came out at 0.17.

For the variant A54U A114G, the self-cleavage is 0.14.

A54U A126G: the self-cleavage was 1.6.

As for A52G C71U, the self-cleavage worked out at 0.44.

A56C A68G: the self-cleavage was found to be 1.59.

Take A54U A67G: the self-cleavage is 0.82.

Consider A55G A68U, for which the self-cleavage came out at 1.2.

As to A55G A68G, the self-cleavage amounted to 1.23.

As to A55G A68C, the self-cleavage amounted to 2.11.

Regarding A52G C88U, the self-cleavage amounted to 1.39.

Consider A55U U57C, for which the self-cleavage was 1.76.

In the case of A55G A135U, the self-cleavage is 0.94.

On to G53U U70C, for which the self-cleavage is 1.29.

For A54U A89G, the self-cleavage turned out to be 1.42.

As to A54U A89C, the self-cleavage was 1.5.

Consider A54G A90U, for which the self-cleavage was 1.57.

As for A54G C85U, the self-cleavage was 1.39.

As for A54G U57G, the self-cleavage worked out at 0.2.

Take A54G U57C: the self-cleavage amounted to 0.65.

On to A55G C76U, for which the self-cleavage is 0.15.

As for A54G C76G, the self-cleavage was found to be 0.22.

G53U A54U: the self-cleavage turned out to be 1.67.

With A54G A126G, the self-cleavage is 0.64.

A52G U122G: the self-cleavage worked out at 1.94.

Turning to A52G U122A, the self-cleavage turned out to be 0.76.

A55G A82C: the self-cleavage came to 0.16.

Take A54C A116G: the self-cleavage was 0.17.

Consider G53A A111G, for which the self-cleavage is 0.02.

Take A54C A118G: the self-cleavage was 1.49.

With A55G U87A, the self-cleavage came out at 1.33.

With A55G A63U, the self-cleavage is 1.1.

Consider A55G A63G, for which the self-cleavage was determined as 1.43.

With G53A U103C, the self-cleavage worked out at 0.64.

For the variant A55G G99A, the self-cleavage stood at 0.16.

As to A55G A110G, the self-cleavage is 0.12.

For the variant G53U A82U, the self-cleavage worked out at 0.27.

Regarding A52G U133C, the self-cleavage is 1.33.

Regarding A52G U103C, the self-cleavage was found to be 0.45.

In the case of A55G U133C, the self-cleavage came to 1.83.

As to A52U U124G, the self-cleavage was 0.84.

As for G53U U72A, the self-cleavage amounted to 0.19.

Turning to A56G C76U, the self-cleavage turned out to be 0.14.

On to G53U U127A, for which the self-cleavage was 1.92.

On to A54U U124A, for which the self-cleavage worked out at 0.86.

Take A55U U100A: the self-cleavage amounted to 0.82.

Take A55U U100C: the self-cleavage was determined as 2.69.

Regarding A56G G99C, the self-cleavage was 0.2.

On to A54U A56U, for which the self-cleavage is 1.8.

In the case of A52G C77A, the self-cleavage amounted to 1.2.

As to A55G A59G, the self-cleavage came out at 1.17.

On to G53C, for which the self-cleavage is 1.74.

G53A: the self-cleavage came out at 1.21.

As to G53U, the self-cleavage came to 1.7.

Turning to A55G G136A, the self-cleavage was 1.36.

For the variant A54G A98G, the self-cleavage was determined as 0.33.

Take A55C U87C: the self-cleavage is 0.47.

Turning to A54G C112U, the self-cleavage was 0.03.

A55G A111U: the self-cleavage is 0.21.

Turning to A52G C128U, the self-cleavage worked out at 1.26.

On to A54G A118U, for which the self-cleavage was found to be 0.84.

A54G A118G: the self-cleavage is 1.08.

With A54C A68G, the self-cleavage worked out at 1.03.

For A55U A68G, the self-cleavage was 1.44.

In the case of A56G A69G, the self-cleavage was 1.08.

A54G A59G: the self-cleavage is 0.84.

Turning to A52U A69G, the self-cleavage was determined as 2.44.

For A52U A69U, the self-cleavage is 1.98.

As to A54U U72C, the self-cleavage is 0.09.

For A56C A82G, the self-cleavage was 0.56.

A55C A59G: the self-cleavage was 0.36.

With A54U A92G, the self-cleavage was determined as 1.54.

Turning to A55C A82G, the self-cleavage amounted to 0.53.

For the variant A52G U100A, the self-cleavage amounted to 0.65.

As to A52G U100C, the self-cleavage turned out to be 2.01.

Consider A52G C85U, for which the self-cleavage worked out at 0.87.

A52U G99A: the self-cleavage is 0.22.

For A55G A129C, the self-cleavage amounted to 0.72.

Consider A55G A129G, for which the self-cleavage was found to be 0.99.

For A54G G84A, the self-cleavage is 2.33.

As to A56G A140G, the self-cleavage is 1.78.

For A54U A117G, the self-cleavage worked out at 1.63.

Consider A55U A90G, for which the self-cleavage came to 1.36.

Regarding A55G U130C, the self-cleavage is 0.96.

Regarding A54G A78G, the self-cleavage was found to be 0.3.

For the variant A55G A98U, the self-cleavage came to 1.21.

Turning to G53A U100C, the self-cleavage worked out at 2.52.

Take A56G A94G: the self-cleavage was found to be 1.29.

Take A52U A96G: the self-cleavage came out at 1.91.

For A54U A82C, the self-cleavage was determined as 0.13.

Take A54U A82G: the self-cleavage turned out to be 0.64.

A52U: the self-cleavage amounted to 0.8.

Regarding A54U A60G, the self-cleavage came to 0.97.

With A56G A98G, the self-cleavage stood at 0.57.

For the origin of these results see the RNAGym collection of RNA variant scans (doi:10.7554/elife.90254).
